Consider one substance from publication PMC4927390.

The assay deals with PpsR2-mVenus-CAAX (membrane-bound) (Rhodopseudomonas palustris). Description: translocation assay.

For the substance “BphP1-mCherry, transiently expressed in HeLa cells (natural protein)”, the decrease of mCherry fluorescence in cytoplasm after 3 min of 740 nm illumination was 25%.
